Columns and labels:
[1] = tested on: serum LH; conditions: cited from earlier work
Description: This was the first study to examine the effects of intranasal kisspeptin administration on reproductive hormone secretion in humans. […] We have previously examined a single intravenous bolus of 6.4, 12.8, and 25.6 nmol/kg of kisspeptin-54 in healthy men.[59] In that study, peak LH levels occurred 4–6 h after intravenous kisspeptin administration with a maximal increase from baseline of 8–10 IU/L for the three doses tested.[59] In the current study, a far more rapid increase in serum LH was observed after intranasal kisspeptin for all four doses tested with peak LH stimulation (4.45 IU/L abo ...

[2] = Stability of kisspeptin-54 solutions for nasal delivery; type: physicochemical; conditions: for Reduction of the initial concentration: after 60 days, HPLC; for % of initial concentration: chemical stability, 3.5 mg/mL in 0.9% saline, HPLC-UV 220 nm, mean ± SEM, N = 3
Description: Kisspeptin-54 3.5 mg/mL solutions, equivalent to the lowest dose used in the human clinical study, were prepared and aliquoted into glass nasal spray devices and sealed amber glass vials (airtight, light protected control). The test materials were stored upright in a single location (4 °C refrigerator with temperature monitoring) with minimal manipulation or movement for 60 days. On each day of analysis, three aliquots were sampled from each container and analysed by HPLC.
Each kisspeptin-54 sample was assayed in triplicate using a Waters 2795 Separation Module HPLC equipped with Waters 2996 Photodiode Array Detector and a Luna® 3 μm C18 100 Å LC Column 150 × 4.6 mm with trimethylsilyl (TMS) end capping used. Injection volume was 25 μL and the mobile phase was a gradient using eluent A (0.05% trifluoroacetic acid (TFA):1% acetonitrile (ACN): 98.95% H20) and eluent B (0.05% TFA in MeOH/ACN 1:1(V/V)) from 20 to 60% eluent B with a flow rate of 1 mL/min and a run time of 15 min. Column temperature was set at 40 °C and ultraviolet (UV) detection at 220 nm. The assay was validated for linearity (r = 0.993), accuracy and precision in the range 0.3–0.7 mg/mL.

[3] = Safety assessments in healthy participants and patients (adverse events, blood pressure, heart rate); type: in vivo, human; conditions: intranasal; for Side effects or adverse events (of any severity): all participants in all study groups (healthy men, healthy women, patients with HA)
Description: All studies commenced at 08:00 to control for circadian hormonal changes. Participants were instructed to abstain from alcohol, caffeine, and sexual activities from 22:00 preceding each study visit. On arrival, an intravenous cannula was inserted into one antecubital fossa, and blood was sampled at timepoints −30, −15, and 0 min, before intranasal administration of kisspeptin-54 or 0.9% saline (placebo). Following participant education (described below), healthy men self-administered the following 5 interventions under supervision in random order via the intranasal route: 3.2, 6.4, 12.8, and 25.6 nmol/kg of kisspeptin-54, or placebo. Healthy women and patients with HA attended for the same protocol comparing 12.8 nmol/kg of kisspeptin-54 and placebo in random order. After administration of kisspeptin-54 or placebo at timepoint 0 min, serum levels of LH, FSH, and testosterone (in men), or oestradiol and progesterone (in women) were measured every 15 min for 4 h. Heart rate, blood pressure, and the presence of adverse symptoms were recorded every 15 min.
The primary outcome measure was change in serum LH following intranasal administration of kisspeptin compared to placebo. The secondary outcome measures were changes in serum FSH, as well as testosterone [in men], and oestradiol and progesterone [in women] following intranasal administration of kisspeptin compared to placebo. In addition, safety assessments were performed that included adverse event recording, blood pressure, and heart rate measurements.

[4] = tested on: LH; conditions: mice, intraperitoneal route, 1 nM; cited from earlier work

Which “Maximal increase from baseline in LH” value ([1]; healthy men, single intravenous bolus of 6.4, 12.8, and 25.6 nmol/kg) does the source give for Kisspeptin-54 here?
Its value is 8–10 IU/L.

What about the “Increase in serum LH, mean” value ([1]; healthy volunteers, intravenous, standard deviation 0.4 IU/L) of the same substance?
The value was 10.2 IU/L.

What about the “Time within pharmaceutically accepted limits for stability” value ([2]; 0.9% saline solution, 4 °C) of the same substance?
The value was “up to 60 days”.

And the “Appearance of the solution (clear when freshly made)” value ([2]; 0.9% saline, 4 °C, 60 days of storage, either container type)?
The value was “no change was observed”.

What about the “Reduction of the initial concentration” value ([2]; 0.9% saline, 4 °C, glass nasal spray devices) of the same substance?
Its value is 5.4%.

What about the “Reduction of the initial concentration” value ([2]; 0.9% saline, 4 °C, sealed amber glass vials) of the same substance?
The value was 5.0%.

And the “% of initial concentration” value ([2]; 4 °C in nasal spray, 4 days)?
The value was 98.06 ± 1.11%.

And the “% of initial concentration” value ([2]; 4 °C in nasal spray, 7 days)?
The value was 98.28 ± 0.69%.

What about the “% of initial concentration” value ([2]; 4 °C in nasal spray, 14 days) of the same substance?
The value was 97.90 ± 0.67%.

And the “% of initial concentration” value ([2]; 4 °C in nasal spray, 28 days)?
Its value is 96.11 ± 0.51%.

What about the “% of initial concentration” value ([2]; 4 °C in nasal spray, 60 days) of the same substance?
The value was 94.56 ± 1.67%.

What about the “% of initial concentration” value ([2]; 4 °C in sealed amber vial, 4 days) of the same substance?
Its value is 98.94 ± 0.57%.

What about the “% of initial concentration” value ([2]; 4 °C in sealed amber vial, 7 days) of the same substance?
Its value is 98.69 ± 0.58%.

And the “% of initial concentration” value ([2]; 4 °C in sealed amber vial, 14 days)?
Its value is 97.91 ± 0.64%.

What about the “% of initial concentration” value ([2]; 4 °C in sealed amber vial, 28 days) of the same substance?
Its value is 97.32 ± 0.56%.

And the “% of initial concentration” value ([2]; 4 °C in sealed amber vial, 60 days)?
Its value is 95.01 ± 1.45%.

What about the “Side effects or adverse events (of any severity)” value [3] of the same substance?
The value was “without any side effects or adverse events”.

What about the “Side effects or adverse events (of any severity)” value ([3]; listed as kisspeptin) of the same substance?
The value was “no side effects or adverse events”.

What about the “Effect on blood pressure or heart rate measurements” value ([3]; any of the doses administered, recorded every 15 min) of the same substance?
The value was “no effect”.

What about the “Effect on LH” value [4] of the same substance?
The value was “robustly increases LH”.

— publication PMC12018048, “Intranasal kisspeptin administration rapidly stimulates gonadotropin release in humans” (eBioMedicine, 2025)
